The values below come from publication PMC12540712.

The experiment addresses And-1 HMG domain, 984-1129 (UniProt O75717). Kind of experiment: GST-HMG pull-down of SepB, immunoblot. Particulars: reference: wild-type SepB; sites T826. Background: Immunoblotting shows a protein as a band on a membrane.

With “And-1 SepB domain, 330-984 (from UniProt O75717) T826A SepB”, the “binding against the reference” value was “stronger”.
